Where “and” joins values, the source holds several entries; their conditions need not be identical. Equal values may be shown once. Values belong to the binder of their own block, whether it stands above or below them.
What was measured:
[1] = biological target: T1, His6-SUMO-tagged SH3 to PDZ domains of Shank2 (R520-D727), WT ( (human or rat cDNA cloned), UniProt Q9UPX8-3 520-727); experiment: ITC; peptide in the syringe (200 µM; 1 mM for G643R), His6-SUMO SH3-PDZ protein in the cell (20-30 µM); 25 °C; 50 mM Tris-HCl pH 8.0, 100 mM NaCl, 1 mM EDTA; 1:1 binding model; details: both partners purified
T1 construct: Shank2, SH3 to PDZ domains, residues R520-D727; numbers count on: NM_012309.5 (isoform of 1849 residues); Cloned into pET-SUMO; also called His6-SUMO-SH3-PDZ fusion; Shank2 WT; source: E. coli BL21(DE3), purified (Ni-NTA agarose, G-25); not shown: His6, N-terminal, kept; SUMO, N-terminal, kept
T1 sequence (looked up): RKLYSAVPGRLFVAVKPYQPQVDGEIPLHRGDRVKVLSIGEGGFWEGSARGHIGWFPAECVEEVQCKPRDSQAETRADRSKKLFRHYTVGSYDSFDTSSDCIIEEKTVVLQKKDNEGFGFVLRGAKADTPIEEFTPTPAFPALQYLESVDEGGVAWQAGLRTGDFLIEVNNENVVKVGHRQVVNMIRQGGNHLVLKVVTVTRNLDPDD

[2] = biological target: the molecule itself; experiment: turbidity (absorbance at 350 nm); His6-SUMO-tagged SAM domains, 10 µM, mixed with Zn2+ in 96-well plates (200 µl); absorbance after 10 min or every 10 s with 10 µM Zn2+; 0.5 M NaCl, 20 mM Tris/HCl pH 7.5
[3] = biological target: the molecule itself; experiment: crystal structure; Shank2-SAM WT (0.1 M Bis-Tris pH 5.5, 0.3 M Mg-formate) and L1800W (0.1 M Bis-Tris pH 5.5, 26% PEG 2000MME); sitting drop vapor diffusion; contacts between symmetry-related SAM domains in the crystal; no Zn2+ added
[4] = biological target: the molecule itself; experiment: dynamic light scattering; isolated SAM domains (tag cleaved), 50 µM protein and 50 µM Zn2+, 1 h at room temperature, filtered 0.22 µm
[5] = biological target: T2, His6-SUMO-tagged SH3 to PDZ domains of Shank2 (R520-D727), V717F ( (human or rat cDNA cloned), UniProt Q9UPX8-3 520-727, V717F); experiment: ITC; peptide in the syringe (200 µM; 1 mM for G643R), His6-SUMO SH3-PDZ protein in the cell (20-30 µM); 25 °C; 50 mM Tris-HCl pH 8.0, 100 mM NaCl, 1 mM EDTA; 1:1 binding model; details: both partners purified
T2 construct: Shank2, SH3 to PDZ domains, residues R520-D727, patient variant V717F; numbers count on: NM_012309.5 (isoform of 1849 residues); source: E. coli BL21(DE3), purified (Ni-NTA agarose, G-25); not shown: His6, N-terminal, kept; SUMO, N-terminal, kept
T2 sequence (looked up): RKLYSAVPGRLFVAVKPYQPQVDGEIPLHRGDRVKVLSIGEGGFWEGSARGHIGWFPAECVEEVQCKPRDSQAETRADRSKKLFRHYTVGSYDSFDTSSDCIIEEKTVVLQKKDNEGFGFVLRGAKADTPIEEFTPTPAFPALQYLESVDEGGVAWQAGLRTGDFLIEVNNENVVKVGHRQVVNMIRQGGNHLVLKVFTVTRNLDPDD

[6] = biological target: T3, His6-SUMO-tagged SH3 to PDZ domains of Shank2 (R520-D727), G643R ( (human or rat cDNA cloned), UniProt Q9UPX8-3 520-727, G643R); experiment: as above; details: both partners purified
T3 construct: Shank2, SH3 to PDZ domains, residues R520-D727, patient variant G643R; numbers count on: NM_012309.5 (isoform of 1849 residues); also called G643R mutant Shank2; G643R variant; source: E. coli BL21(DE3), purified (Ni-NTA agarose, G-25); not shown: His6, N-terminal, kept; SUMO, N-terminal, kept
T3 sequence (looked up): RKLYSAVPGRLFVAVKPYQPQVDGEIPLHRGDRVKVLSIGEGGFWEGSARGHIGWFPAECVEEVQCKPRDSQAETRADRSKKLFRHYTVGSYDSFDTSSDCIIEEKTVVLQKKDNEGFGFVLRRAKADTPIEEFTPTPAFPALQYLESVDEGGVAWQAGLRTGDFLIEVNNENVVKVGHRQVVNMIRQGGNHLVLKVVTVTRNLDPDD

[7] = biological target: T4, His6-SUMO-tagged SH3 to PDZ domains of Shank2 (R520-D727), N690S ( (human or rat cDNA cloned), UniProt Q9UPX8-3 520-727, N690S); experiment: as above; details: both partners purified
T4 construct: Shank2, SH3 to PDZ domains, residues R520-D727, patient variant N690S; numbers count on: NM_012309.5 (isoform of 1849 residues); source: E. coli BL21(DE3), purified (Ni-NTA agarose, G-25); not shown: His6, N-terminal, kept; SUMO, N-terminal, kept
T4 sequence (looked up): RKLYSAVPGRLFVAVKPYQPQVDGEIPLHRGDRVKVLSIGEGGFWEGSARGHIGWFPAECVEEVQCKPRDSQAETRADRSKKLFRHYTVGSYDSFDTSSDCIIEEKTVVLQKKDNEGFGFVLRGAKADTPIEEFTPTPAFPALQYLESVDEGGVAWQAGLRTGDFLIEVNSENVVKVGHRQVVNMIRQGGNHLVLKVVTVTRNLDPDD

[8] = biological target: T5, His6-SUMO-tagged SH3 to PDZ domains of Shank2 (R520-D727), S610Y ( (human or rat cDNA cloned), UniProt Q9UPX8-3 520-727, S610Y); experiment: as above; details: both partners purified
T5 construct: Shank2, SH3 to PDZ domains, residues R520-D727, patient variant S610Y; numbers count on: NM_012309.5 (isoform of 1849 residues); source: E. coli BL21(DE3), purified (Ni-NTA agarose, G-25); not shown: His6, N-terminal, kept; SUMO, N-terminal, kept
T5 sequence (looked up): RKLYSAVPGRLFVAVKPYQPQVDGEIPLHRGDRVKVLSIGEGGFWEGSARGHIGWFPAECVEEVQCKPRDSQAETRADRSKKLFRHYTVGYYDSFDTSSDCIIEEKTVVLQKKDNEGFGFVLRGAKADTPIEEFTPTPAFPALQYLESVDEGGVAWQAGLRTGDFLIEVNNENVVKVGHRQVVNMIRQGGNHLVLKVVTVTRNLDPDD

[9] = biological target: T6, His6-SUMO-tagged SH3 to PDZ domains of Shank2 (R520-D727), V717F ( (human or rat cDNA cloned), UniProt Q9UPX8-3 520-727, V717F); experiment: ITC
T6 sequence: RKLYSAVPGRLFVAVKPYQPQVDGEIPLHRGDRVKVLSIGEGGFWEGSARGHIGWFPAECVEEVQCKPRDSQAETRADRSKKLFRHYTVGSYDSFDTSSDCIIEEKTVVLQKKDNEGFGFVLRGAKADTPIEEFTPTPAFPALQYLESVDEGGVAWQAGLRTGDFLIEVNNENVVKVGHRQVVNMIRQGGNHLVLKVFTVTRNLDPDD

[10] = biological target: T7, His6-SUMO-tagged SH3 to PDZ domains of Shank2 (R520-D727), N690S ( (human or rat cDNA cloned), UniProt Q9UPX8-3 520-727, N690S); experiment: ITC
T7 sequence: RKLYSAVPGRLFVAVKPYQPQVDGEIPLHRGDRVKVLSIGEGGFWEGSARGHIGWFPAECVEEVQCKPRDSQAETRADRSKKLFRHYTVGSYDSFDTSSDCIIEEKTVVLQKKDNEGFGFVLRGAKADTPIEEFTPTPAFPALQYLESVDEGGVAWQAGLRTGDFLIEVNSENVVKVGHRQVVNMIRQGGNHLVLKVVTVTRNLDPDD

[11] = biological target: T8, His6-SUMO-tagged SH3 to PDZ domains of Shank2 (R520-D727), S610Y ( (human or rat cDNA cloned), UniProt Q9UPX8-3 520-727, S610Y); experiment: ITC
T8 sequence: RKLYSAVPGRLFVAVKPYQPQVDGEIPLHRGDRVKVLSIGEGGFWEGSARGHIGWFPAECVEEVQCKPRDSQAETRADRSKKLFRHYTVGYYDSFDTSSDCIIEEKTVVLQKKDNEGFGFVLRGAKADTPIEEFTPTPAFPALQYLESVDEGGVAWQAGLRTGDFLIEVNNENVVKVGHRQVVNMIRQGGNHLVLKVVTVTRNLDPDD

[12] = biological target: T9, His6-SUMO-tagged SH3 to PDZ domains of Shank2 (R520-D727), G643R ( (human or rat cDNA cloned), UniProt Q9UPX8-3 520-727, G643R); experiment: ITC
T9 sequence: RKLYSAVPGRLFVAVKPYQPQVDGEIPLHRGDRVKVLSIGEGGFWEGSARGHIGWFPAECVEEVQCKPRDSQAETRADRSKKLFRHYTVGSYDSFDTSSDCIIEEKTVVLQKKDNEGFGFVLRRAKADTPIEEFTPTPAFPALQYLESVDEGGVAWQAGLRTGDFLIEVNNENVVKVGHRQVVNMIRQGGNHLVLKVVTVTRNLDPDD

[13] = biological target: T10, His6-SUMO-tagged SH3 to PDZ domains of Shank2 (R520-D727), WT ( (human or rat cDNA cloned), UniProt Q9UPX8-3 520-727); experiment: ITC
T10 chain: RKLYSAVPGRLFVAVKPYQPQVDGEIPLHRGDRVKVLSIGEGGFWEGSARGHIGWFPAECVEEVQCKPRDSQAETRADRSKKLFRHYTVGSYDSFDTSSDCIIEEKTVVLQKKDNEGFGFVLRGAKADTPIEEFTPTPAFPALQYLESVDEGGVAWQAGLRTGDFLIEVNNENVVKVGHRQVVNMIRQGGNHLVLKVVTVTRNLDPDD

fold reduction of affinity against the GKAP peptide [1]: ~40 fold
B1: synthetic peptide of the C-terminal PDZ ligand of CIRL1/latrophilin (peptide)
peptide: PGPDGDGQMQLVTSL
notes: CIRL1/latrophilin, C-terminal PDZ ligand (15 residues), free N- and C-terminus; also called CIRL1 peptide; source: synthetic peptide (Genscript)

B2: His6-SUMO-tagged Shank2-SAM domain (T1780-R1849), WT (domain or fragment, UniProt Q9UPX8-3 1780-1849, looked up)
chain: TKPVHLWTKPDVADWLESLNLGEHKEAFMDNEIDGSHLPNLQKEDLIDLGVTRVGHRMNIERALKQLLDR
notes: Shank2 SAM domain, residues T1780-R1849; numbers count on: NM_012309.5 (isoform of 1849 residues); also called SUMO-SAM fusion; WT SAM domain; source: E. coli BL21(DE3), purified (Ni-NTA agarose, G-25); not shown: His6, N-terminal, kept; SUMO, N-terminal, kept
binding result [2]: binds

B3: Shank2-SAM domain (T1780-R1849), L1800W, His-SUMO tag cleaved off (domain or fragment, UniProt Q9UPX8-3 1780-1849, looked up)
chain: TKPVHLWTKPDVADWLESLNWGEHKEAFMDNEIDGSHLPNLQKEDLIDLGVTRVGHRMNIERALKQLLDR
notes: Shank2 SAM domain, residues T1780-R1849, patient variant L1800W; numbers count on: NM_012309.5 (isoform of 1849 residues); also called SAM-L1800W; L1800W mutant SAM domain; source: E. coli BL21(DE3), purified (Ni-NTA agarose), tag cleaved with SUMO protease and removed on Ni-NTA; not shown: His6, N-terminal, cleaved; SUMO, N-terminal, cleaved
binding result [3]: binds

B4: Shank2-SAM domain (T1780-R1849), WT, His-SUMO tag cleaved off (domain or fragment, UniProt Q9UPX8-3 1780-1849, looked up)
chain: TKPVHLWTKPDVADWLESLNLGEHKEAFMDNEIDGSHLPNLQKEDLIDLGVTRVGHRMNIERALKQLLDR
notes: Shank2 SAM domain, residues T1780-R1849; numbers count on: NM_012309.5 (isoform of 1849 residues); also called SAM-WT; Shank2-SAM WT; source: E. coli BL21(DE3), purified (Ni-NTA agarose), tag cleaved with SUMO protease and removed on Ni-NTA; not shown: His6, N-terminal, cleaved; SUMO, N-terminal, cleaved
binding result [4]: binds

B5: His6-SUMO-tagged Shank2-SAM domain (T1780-R1849), L1800W (domain or fragment, UniProt Q9UPX8-3 1780-1849, looked up)
chain: TKPVHLWTKPDVADWLESLNWGEHKEAFMDNEIDGSHLPNLQKEDLIDLGVTRVGHRMNIERALKQLLDR
notes: Shank2 SAM domain, residues T1780-R1849, patient variant L1800W; numbers count on: NM_012309.5 (isoform of 1849 residues); also called L1800W mutant; p.L1800W SAM domain; source: E. coli BL21(DE3), purified (Ni-NTA agarose, G-25); not shown: His6, N-terminal, kept; SUMO, N-terminal, kept
binding result [2]: binds

binding result [5]: binds
fold reduction of affinity against WT [6]: > 70 fold
binding result [1]: binds
binding result [7]: binds
binding result [8]: binds
Kd [9]: 848 nM
Kd [10]: 411 nM
Kd [11]: 910 nM
Kd [12]: 22 µM and 22.5 µM
Kd [13]: 319 nM and 320 nM
B6: synthetic peptide of the complete PDZ ligand of GKAP (last 15 amino acids of GKAP/SAPAP1) (peptide)
peptide: ADSIEIYIPEAQTRL
notes: GKAP/SAPAP1, the last 15 amino acids (complete PDZ ligand), free N- and C-terminus; also called GKAP peptide; source: synthetic peptide (Genscript)

From article PMC11371640, “Structural deficits in key domains of Shank2 lead to alterations in postsynaptic nanoclusters and to a neurodevelopmental disorder in humans” (Molecular Psychiatry, 2022)
